Source: article PMC13337110, “Pericentrosomal Redistribution of the Endoplasmic Reticulum Ensures Organelle Symmetric Inheritance and Mitotic Progression” (Advanced Science, 2026)

Target: T1, 2×Strep-HA-RTN4B (human, UniProt Q9NQC3-2 1-373, when from mitotic cells: mitotic phosphorylation sites S15, S107, S111, S121, S129, S152)
T1 construct: Reticulon 4, isoform RTN4B, human; cDNA GenBank NM_153828.3 amplified from a U2OS cDNA library; N-terminal cytoplasmic region 1-185 and C-terminal RHD; Tag ends read from the printed construct name; also called Reticulon 4; 2×Strep-HA-RTN4B wild-type (WT); source: HeLa, stably expressed; not shown: 2×Strep, N-terminal, kept; HA, N-terminal, kept
T1 sequence (looked up): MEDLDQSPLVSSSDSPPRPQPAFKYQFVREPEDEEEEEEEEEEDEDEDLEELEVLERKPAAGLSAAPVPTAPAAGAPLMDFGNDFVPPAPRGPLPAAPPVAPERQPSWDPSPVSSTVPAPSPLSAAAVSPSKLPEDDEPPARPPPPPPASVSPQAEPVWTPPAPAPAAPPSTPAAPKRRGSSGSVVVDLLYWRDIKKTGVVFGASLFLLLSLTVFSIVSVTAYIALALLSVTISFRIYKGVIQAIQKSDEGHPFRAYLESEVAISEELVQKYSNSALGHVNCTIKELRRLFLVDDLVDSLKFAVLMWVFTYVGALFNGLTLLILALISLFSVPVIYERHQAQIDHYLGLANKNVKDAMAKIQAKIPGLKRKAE
Test: pull-down; in vitro binding: 2×Strep-HA-RTN4B on Strep-Tactin XT beads incubated with purified GST-Rab11A, 2 h at 4°C; eluted with Strep-Tactin XT elution buffer; Western blot and Coomassie
Details: both partners purified

binding result: binds
B1: GST-Rab11A (natural protein, human, UniProt P62491-1 1-216, looked up)
chain: MGTRDDEYDYLFKVVLIGDSGVGKSNLLSRFTRNEFNLESKSTIGVEFATRSIQVDGKTIKAQIWDTAGQERYRAITSAYYRGAVGALLVYDIAKHLTYENVERWLKELRDHADSNIVIMLVGNKSDLRHLRAVPTDEARAFAEKNGLSFIETSALDSTNVEAAFQTILTEIYRIVSQKQMSDRRENDMSPSNNVVPIHVPPTTENKPKVQCCQNI
notes: Rab11A, human; cDNA GenBank NM_004663.5 in pGEX-6P-1; also called Recombinant Rab11A; GST-tagged Rab11A; source: E. coli Rosetta (DE3), purified (Glutathione Sepharose 4B; eluted with reduced glutathione or kept on beads); not shown: GST, N-terminal, kept
